Reference: patent US8329178B2

What was measured:
Test in all cases: FACS, 293T cells expressing CXCR4 variants
[1] = target: CXCR2/CXCR4 chimera 2442 (human) (UniProt P61073)
[2] = target: CXCR2/CXCR4 chimera 2444b (human) (UniProt P61073)
ΔN25-CXCR4 (human) = ΔN25-CXCR4 (human) (UniProt P61073)
ΔN31-CXCR4 (human) = ΔN31-CXCR4 (human) (UniProt P61073)
Chain of ΔN31-CXCR4 (human) (P61073 32-352, stated change not applied): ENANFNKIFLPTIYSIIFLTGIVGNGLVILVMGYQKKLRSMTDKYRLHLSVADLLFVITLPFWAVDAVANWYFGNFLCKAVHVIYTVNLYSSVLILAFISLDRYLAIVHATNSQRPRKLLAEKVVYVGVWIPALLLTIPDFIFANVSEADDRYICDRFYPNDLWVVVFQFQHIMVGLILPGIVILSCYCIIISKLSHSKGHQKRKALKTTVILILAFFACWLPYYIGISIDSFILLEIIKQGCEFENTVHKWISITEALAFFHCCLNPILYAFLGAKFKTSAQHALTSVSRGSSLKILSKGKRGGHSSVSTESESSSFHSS

Chain of ΔN25-CXCR4 (human) (P61073 26-352, stated change not applied): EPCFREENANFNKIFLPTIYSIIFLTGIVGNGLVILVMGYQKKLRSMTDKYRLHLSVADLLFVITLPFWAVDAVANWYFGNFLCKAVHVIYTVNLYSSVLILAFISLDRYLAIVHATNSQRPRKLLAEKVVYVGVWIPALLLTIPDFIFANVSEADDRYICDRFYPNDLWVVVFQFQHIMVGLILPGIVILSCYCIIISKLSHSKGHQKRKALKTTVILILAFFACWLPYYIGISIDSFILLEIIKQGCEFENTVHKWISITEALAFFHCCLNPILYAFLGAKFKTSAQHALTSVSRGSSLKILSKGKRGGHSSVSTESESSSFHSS

B1: 33-IgG1 (antibody, V domains shown)
VH: QVTLKESGGGVVQPGRSLRLSCAASGFTFTNYGLHWVRQAPGKGLEWVAVISHDGTKKYYADSVKGRFTISRDSSENTLYLQMNSLRPEDSALYYCARDGGYCSGGRCYSYGMDVWGQGTTVTVSS
VL: QSVLTQPPSASGTPGQRVTISCSGSRSNIGSNTVNWYQQLPGTAPKLLIYTNNQRPSGVPDRFSGSKSGTSASLAITGLQAEDEADYYCLSFDSSLTSYVFGTGTKVTVLG
What does the source list for B1?
binding to cells expressing the variant (+%) [1]: 1.5%; binding to cells expressing the variant (+%) [2]: 1%; binding to cells expressing the variant (+%) (ΔN25-CXCR4 (human)): 13%; binding to cells expressing the variant (+%) (ΔN31-CXCR4 (human)): 9%
